Measurements from patent publication EP1688435A1 (Boehringer Ingelheim International GmbH, dated 2006).

Assays:
Assay in all cases: immunoprecipitation with myc antibodies, SDS-PAGE and silver staining (Figure 3B)
[1] = target: T1, human cohesin subunit Smc1 (human, UniProt Q14683 1-1233)
T1 construct: also called Smcl
T1 sequence (looked up): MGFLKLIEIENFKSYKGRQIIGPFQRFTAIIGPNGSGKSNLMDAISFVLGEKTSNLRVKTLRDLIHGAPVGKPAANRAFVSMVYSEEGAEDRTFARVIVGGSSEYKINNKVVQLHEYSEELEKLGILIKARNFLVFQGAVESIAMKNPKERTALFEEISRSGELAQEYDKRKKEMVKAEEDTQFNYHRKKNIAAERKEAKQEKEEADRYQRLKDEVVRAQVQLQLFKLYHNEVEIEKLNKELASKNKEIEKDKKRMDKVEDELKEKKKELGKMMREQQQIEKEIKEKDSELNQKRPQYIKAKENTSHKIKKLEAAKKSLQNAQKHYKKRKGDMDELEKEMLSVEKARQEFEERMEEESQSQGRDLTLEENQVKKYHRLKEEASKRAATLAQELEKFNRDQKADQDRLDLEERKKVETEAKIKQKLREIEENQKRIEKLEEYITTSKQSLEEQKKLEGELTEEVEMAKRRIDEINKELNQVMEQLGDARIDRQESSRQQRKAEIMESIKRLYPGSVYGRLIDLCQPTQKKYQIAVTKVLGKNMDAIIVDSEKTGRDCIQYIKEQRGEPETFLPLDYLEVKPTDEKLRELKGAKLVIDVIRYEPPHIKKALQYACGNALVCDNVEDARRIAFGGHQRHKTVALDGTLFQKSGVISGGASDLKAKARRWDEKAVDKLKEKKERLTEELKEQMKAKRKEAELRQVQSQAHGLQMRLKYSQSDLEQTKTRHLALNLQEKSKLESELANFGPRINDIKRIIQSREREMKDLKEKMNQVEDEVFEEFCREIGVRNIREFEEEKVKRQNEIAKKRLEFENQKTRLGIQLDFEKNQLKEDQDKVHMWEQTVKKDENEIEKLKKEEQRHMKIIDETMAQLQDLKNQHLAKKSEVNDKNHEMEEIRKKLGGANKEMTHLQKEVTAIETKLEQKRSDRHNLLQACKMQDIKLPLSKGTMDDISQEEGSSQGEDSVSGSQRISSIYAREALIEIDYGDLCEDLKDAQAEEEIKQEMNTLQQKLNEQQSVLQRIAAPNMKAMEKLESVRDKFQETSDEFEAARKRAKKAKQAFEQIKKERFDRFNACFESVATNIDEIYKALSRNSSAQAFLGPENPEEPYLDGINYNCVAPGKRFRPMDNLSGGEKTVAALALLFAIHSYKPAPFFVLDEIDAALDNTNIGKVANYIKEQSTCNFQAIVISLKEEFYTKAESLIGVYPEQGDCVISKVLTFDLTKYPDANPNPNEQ

[2] = target: human cohesin subunit Smc3 (human, UniProt Q9UQE7 1-1217)
Sequence of human cohesin subunit Smc3 (Q9UQE7 whole entry): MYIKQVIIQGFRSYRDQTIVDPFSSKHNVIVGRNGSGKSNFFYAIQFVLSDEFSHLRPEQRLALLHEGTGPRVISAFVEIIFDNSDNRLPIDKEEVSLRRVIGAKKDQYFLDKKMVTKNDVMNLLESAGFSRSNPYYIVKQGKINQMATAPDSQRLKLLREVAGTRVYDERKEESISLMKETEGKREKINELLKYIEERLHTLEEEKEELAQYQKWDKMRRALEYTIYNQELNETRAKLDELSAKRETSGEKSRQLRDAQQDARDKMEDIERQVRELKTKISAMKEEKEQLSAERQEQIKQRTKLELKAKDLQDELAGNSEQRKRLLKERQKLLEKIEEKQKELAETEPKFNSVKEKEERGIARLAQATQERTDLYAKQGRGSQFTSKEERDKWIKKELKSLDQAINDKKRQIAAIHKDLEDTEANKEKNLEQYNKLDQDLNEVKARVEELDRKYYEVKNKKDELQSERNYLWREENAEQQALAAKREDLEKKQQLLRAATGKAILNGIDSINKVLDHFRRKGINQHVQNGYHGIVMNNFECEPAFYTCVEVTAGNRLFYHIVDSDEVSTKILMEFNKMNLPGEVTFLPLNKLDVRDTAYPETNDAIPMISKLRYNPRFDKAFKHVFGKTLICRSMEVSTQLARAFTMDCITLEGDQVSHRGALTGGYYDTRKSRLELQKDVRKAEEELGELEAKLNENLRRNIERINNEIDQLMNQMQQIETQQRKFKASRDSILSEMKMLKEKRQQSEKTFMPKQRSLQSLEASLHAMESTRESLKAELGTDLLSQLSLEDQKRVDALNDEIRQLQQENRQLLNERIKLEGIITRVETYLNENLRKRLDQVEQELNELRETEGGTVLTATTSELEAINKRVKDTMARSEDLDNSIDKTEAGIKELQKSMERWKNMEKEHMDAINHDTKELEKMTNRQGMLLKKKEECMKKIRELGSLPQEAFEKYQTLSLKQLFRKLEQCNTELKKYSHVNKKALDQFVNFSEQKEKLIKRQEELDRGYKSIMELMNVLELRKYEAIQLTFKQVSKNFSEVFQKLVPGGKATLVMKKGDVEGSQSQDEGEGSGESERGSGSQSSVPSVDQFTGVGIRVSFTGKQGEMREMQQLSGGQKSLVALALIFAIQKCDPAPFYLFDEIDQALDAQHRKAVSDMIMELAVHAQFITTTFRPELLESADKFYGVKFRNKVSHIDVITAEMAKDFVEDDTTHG

[3] = target: T2, human cohesin subunit SA1 (cell-cycle state not stated) (human, UniProt Q8WVM7 1-1258)
T2 sequence (looked up): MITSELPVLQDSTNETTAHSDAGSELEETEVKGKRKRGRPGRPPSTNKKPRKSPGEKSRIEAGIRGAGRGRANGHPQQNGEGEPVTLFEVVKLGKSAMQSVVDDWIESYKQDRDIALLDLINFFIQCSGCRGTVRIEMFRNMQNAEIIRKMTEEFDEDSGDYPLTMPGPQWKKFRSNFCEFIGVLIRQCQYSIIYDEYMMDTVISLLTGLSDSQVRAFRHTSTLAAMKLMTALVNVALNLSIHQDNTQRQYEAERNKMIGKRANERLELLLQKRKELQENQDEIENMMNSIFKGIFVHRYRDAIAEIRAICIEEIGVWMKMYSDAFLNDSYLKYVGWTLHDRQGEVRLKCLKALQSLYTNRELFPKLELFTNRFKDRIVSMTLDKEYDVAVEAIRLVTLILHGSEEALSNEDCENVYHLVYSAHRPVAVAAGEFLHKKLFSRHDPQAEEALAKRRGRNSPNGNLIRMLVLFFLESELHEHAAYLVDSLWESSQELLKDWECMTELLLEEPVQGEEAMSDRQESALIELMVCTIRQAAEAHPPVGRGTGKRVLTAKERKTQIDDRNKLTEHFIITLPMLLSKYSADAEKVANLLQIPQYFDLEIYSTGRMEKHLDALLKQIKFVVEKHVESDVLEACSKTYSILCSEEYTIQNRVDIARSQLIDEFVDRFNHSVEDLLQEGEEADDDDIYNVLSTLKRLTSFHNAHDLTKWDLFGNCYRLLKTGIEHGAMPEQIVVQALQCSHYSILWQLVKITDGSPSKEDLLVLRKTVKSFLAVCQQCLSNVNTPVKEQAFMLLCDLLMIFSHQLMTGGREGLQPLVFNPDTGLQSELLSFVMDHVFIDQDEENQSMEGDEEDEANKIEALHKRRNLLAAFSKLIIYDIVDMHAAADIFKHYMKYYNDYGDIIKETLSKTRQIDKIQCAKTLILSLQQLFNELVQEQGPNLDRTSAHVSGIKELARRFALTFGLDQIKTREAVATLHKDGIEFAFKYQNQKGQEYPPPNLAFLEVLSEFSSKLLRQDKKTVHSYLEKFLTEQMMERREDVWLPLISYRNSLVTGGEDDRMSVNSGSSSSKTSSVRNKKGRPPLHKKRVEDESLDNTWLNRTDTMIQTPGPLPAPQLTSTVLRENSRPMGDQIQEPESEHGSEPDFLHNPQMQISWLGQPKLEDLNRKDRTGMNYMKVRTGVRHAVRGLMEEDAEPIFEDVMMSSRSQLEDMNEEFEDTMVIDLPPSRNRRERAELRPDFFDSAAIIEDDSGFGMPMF

[4] = target: T3, human cohesin subunit SA2 (cell-cycle state not stated) (human, UniProt Q8N3U4 1-1231)
T3 construct: Endogenous protein from HeLa cells
T3 sequence: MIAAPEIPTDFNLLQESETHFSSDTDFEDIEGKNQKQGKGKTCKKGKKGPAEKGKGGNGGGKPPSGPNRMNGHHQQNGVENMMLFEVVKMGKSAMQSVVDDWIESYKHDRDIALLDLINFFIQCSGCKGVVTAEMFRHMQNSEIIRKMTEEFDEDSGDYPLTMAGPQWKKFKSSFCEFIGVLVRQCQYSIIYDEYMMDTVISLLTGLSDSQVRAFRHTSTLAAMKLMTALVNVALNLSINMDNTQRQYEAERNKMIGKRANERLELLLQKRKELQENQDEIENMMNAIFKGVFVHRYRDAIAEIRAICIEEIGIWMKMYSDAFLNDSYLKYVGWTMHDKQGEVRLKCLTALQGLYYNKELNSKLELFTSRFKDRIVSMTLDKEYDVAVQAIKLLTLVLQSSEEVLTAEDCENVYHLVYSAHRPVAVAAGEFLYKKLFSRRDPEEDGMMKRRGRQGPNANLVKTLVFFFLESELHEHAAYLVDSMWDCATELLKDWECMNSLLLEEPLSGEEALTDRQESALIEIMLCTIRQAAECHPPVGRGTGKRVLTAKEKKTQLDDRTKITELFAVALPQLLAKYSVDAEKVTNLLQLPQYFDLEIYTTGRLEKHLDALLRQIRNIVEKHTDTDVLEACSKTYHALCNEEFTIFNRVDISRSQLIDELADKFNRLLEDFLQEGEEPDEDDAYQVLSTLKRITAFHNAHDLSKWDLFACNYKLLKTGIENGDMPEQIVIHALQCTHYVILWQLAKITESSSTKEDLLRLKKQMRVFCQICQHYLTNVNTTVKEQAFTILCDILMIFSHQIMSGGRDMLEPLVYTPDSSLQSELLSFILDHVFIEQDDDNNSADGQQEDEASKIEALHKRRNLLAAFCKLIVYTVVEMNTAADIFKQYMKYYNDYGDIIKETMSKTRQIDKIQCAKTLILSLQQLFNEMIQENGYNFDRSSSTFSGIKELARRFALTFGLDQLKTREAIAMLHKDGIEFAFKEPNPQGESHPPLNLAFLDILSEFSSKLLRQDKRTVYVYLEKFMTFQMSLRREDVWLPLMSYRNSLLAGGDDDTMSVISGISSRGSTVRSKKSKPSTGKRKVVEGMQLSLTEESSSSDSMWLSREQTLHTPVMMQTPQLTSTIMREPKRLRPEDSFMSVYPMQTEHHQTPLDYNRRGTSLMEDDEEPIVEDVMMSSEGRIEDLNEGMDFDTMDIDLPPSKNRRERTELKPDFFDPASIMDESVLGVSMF

- binding result [1]: binds
- binding result [2]: binds
- binding result [3]: binds
- binding result [4]: binds
B1: Scc1-S454A-myc expressed in HeLa tet-on cells (cell-cycle state not stated) (other)
chain: MFYAHFVLSKRGPLAKIWLAAHWDKKLTKAHVFECNLESSVESIISPKVKMALRTSGHLLLGVVRIYHRKAKYLLADCNEAFIKIKMAFRPGVVDLPEENREAAYNAITLPEEFHDFDQPLPDLDDIDVAQQFSLNQSRVEEITMREEVGNISILQENDFGDFGMDDREIMREGSAFEDDDMLVSTTTSNLLLESEQSTSNLNEKINHLEYEDQYKDDNFGEGNDGGILDDKLISNNDGGIFDDPPALSEAGVMLPEQPAHDDMDEDDNVSMGGPDSPDSVDPVEPMPTMTDQTTLVPNEEEAFALEPIDITVKETKAKRKRKLIVDSVKELDSKTIRAQLSDYSDIVTTLDLAPPTKKLMMWKETGGVEKLFSLPAQPLWNNRLLKLFTRCLTPLVPEDLRKRRKGGEADNLDEFLKEFENPEVPREDQQQQHQQRDVIDEPIIEEPSRLQEAVMEASRTNIDESAMPPPPPQGVKRKAGQIDPEPVMPPQQVEQMEIPPVELPPEEPPNICQLIPELELLPEKEKEKEKEKEDDEEEEDEDASGGDQDQEERRWNKRTQQMLHGLQRALAKTGAESISLLELCRNTNRKQAAAKFYSFLVLKKQQAIELTQEEPYSDIIATPGPRFHII
notes: not shown: 9xmyc tag at the C-terminus
